Experimental data reported in US20230381333A1 (HANMI PHARM, published 2023).
Bridge positions count the residues as written; N and C are the ends. Square brackets hold non-standard residues; d marks the D form. Ends that are not written are not given here. * marks the point of attachment. Acetyl(2-(4-imidazolyl)) = O=C(Cc1c[nH]cn1)*; Aib = CC(C)(N)C(=O)O

T1: human GIP receptor (human, UniProt P48546 22-466)
T1 sequence (looked up): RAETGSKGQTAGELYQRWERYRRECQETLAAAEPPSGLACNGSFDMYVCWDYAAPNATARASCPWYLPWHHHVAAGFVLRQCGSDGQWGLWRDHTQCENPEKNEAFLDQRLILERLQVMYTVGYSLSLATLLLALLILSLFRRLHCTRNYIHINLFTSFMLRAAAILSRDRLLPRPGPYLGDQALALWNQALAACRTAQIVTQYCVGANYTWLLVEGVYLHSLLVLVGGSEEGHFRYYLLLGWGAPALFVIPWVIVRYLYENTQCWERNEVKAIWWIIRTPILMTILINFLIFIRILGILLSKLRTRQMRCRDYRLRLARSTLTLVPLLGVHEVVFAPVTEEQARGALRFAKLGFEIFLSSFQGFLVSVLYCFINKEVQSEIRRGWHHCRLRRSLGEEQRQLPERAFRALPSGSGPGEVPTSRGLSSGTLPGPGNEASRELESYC


Key:
Experiment in all cases: cell-based or functional assay
[1] = target: T1, human GIP receptor
[2] = target: human GCG receptor (human, UniProt P47871 26-477)
[3] = target: human GLP-1 receptor (human, UniProt P43220 24-463)

Sequence of human GCG receptor (P47871 26-477): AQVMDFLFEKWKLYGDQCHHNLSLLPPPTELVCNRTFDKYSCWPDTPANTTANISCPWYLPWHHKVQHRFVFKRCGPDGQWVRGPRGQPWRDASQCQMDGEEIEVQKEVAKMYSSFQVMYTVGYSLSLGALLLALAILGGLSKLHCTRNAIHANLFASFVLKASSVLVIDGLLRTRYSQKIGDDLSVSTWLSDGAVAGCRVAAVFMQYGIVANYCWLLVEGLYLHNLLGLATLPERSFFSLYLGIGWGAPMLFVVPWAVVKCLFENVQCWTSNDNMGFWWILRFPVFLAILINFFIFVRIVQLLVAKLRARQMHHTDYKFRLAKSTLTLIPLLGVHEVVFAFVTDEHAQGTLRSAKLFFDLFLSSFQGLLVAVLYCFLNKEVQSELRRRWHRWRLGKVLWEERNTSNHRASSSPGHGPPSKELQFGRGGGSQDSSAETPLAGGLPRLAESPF

| Binder | In vitro activity compared to native-type peptide (%), vs GIP [1] [%] | In vitro activity compared to native-type peptide (%), vs Glucagon [2] [%] | In vitro activity compared to native-type peptide (%), vs GLP-1 [3] [%] |
| --- | --- | --- | --- |
| {Acetyl(2-(4-imidazolyl))}-[Aib]QGTFTSDYSKYLDEKRQKEFVQWLLNTKC (bridge 15-19) [triple agonist of SEQ ID NO: 88] | < 0.1 | 0.3 | 9.6 |
| H[Aib]QGTFTSDVSKYLDGQAAQEFVAWLLAGGGPSSGAPPPSC [triple agonist of SEQ ID NO: 10] | < 0.1 | < 0.1 | 46 |
| {Acetyl(2-(4-imidazolyl))}-[Aib]QGTFTSDYSIAMDEIHQKDFVNWLLAQC (bridge 15-19) [triple agonist of SEQ ID NO: 85] | 0.3 | < 0.1 | 4.3 |
| Y[Aib]QGTFTSDYSKYLDEKRAKEFVQWLLCHHPSSGQPPPS (bridge 16-20) [triple agonist of SEQ ID NO: 95] | < 0.1 | 0.4 | 2.1 |
| H[Aib]EGTFTSDYSIAMDEIHQKDFVDWLLAEKC (bridge 16-20) [triple agonist of SEQ ID NO: 80] | 0.1 | 0 | 8.1 |
| {Acetyl(2-(4-imidazolyl))}-[Aib]QGTFTSDYSKYLDEKRQKEFVNWLLAQC (bridge 15-19) [triple agonist of SEQ ID NO: 86] | 0.2 | 0.4 | 28.4 |
| {Acetyl(2-(4-imidazolyl))}-[Aib]QGTFTSDYSKYLDEKRQKEFVQWLLDTC (bridge 15-19) [triple agonist of SEQ ID NO: 82] | < 0.1 | 1.1 | 9.5 |
| {Acetyl(2-(4-imidazolyl))}-[Aib]QGTFTSDYSKYLDEKRQKEFVQWLLDTKC (bridge 15-19) [triple agonist of SEQ ID NO: 89] | < 0.1 | 0.7 | 7.1 |
| Y[Aib]QGTFTSDYSKYLDEKRAKEFVQWLLDHCPSSGQPPPS (bridge 16-20) [triple agonist of SEQ ID NO: 96] | 5.2 | 195 | 34.4 |
| H[Aib]QGTFTSDVSKYLDGQAAQEFVAWLLAGC [triple agonist of SEQ ID NO: 9] | < 0.1 | 0.13 | 32.1 |
| {Acetyl(2-(4-imidazolyl))}-[Aib]QGTFTSDYSIAMDEIHQKDFVNWLLNTKC (bridge 15-19) [triple agonist of SEQ ID NO: 94] | < 0.1 | < 0.1 | 0.5 |
| {Acetyl(2-(4-imidazolyl))}-[Aib]QGTFTSDYSKYLDEKRQKEFVNWLLAQKC (bridge 15-19) [triple agonist of SEQ ID NO: 93] | 0.7 | 0.3 | 5.7 |
| {Acetyl(2-(4-imidazolyl))}-[Aib]EGTFTSDYSIAMDEIHQKDFVDWLLAEC (bridge 15-19) [triple agonist of SEQ ID NO: 84] | < 0.1 | < 0.1 | 4.2 |
| {Acetyl(2-(4-imidazolyl))}-[Aib]QGTFTSDYSKYLDEKRQKEFVQWLLNTC (bridge 15-19) [triple agonist of SEQ ID NO: 81] | < 0.1 | 0.3 | 7.8 |
| {Acetyl(2-(4-imidazolyl))}-[Aib]EGTFTSDYSIAMDEIHQKDFVNWLLAQKC (bridge 15-19) [triple agonist of SEQ ID NO: 90] | < 0.1 | < 0.1 | 7.4 |
| {Acetyl(2-(4-imidazolyl))}-[Aib]EGTFTSDYSIAMDEIHQKDFVDWLLAEKC (bridge 15-19) [triple agonist of SEQ ID NO: 91] | 0.3 | 16.8 | 31.9 |
| {Acetyl(2-(4-imidazolyl))}-[Aib]QGTFTSDYSIAMDEIHQKDFVNWLLAQKC (bridge 15-19) [triple agonist of SEQ ID NO: 92] | 0.4 | < 0.1 | 0.8 |
| {Acetyl(2-(4-imidazolyl))}-[Aib]EGTFTSDYSIAMDEIHQKDFVNWLLAQC (bridge 15-19) [triple agonist of SEQ ID NO: 83] | 0.4 | 1.3 | 47.3 |
| {Acetyl(2-(4-imidazolyl))}-[Aib]QGTFTSDYSIAMDEIHQKDFVNWLLNTC (bridge 15-19) [triple agonist of SEQ ID NO: 87] | < 0.1 | < 0.1 | 0.9 |
